Test results published in publication PMC10238842 (Molecular Therapy. Methods & Clinical Development, 2023).
Numbering of substitutions follows the chain as printed. Names and notes keep the numbering of the source.

B1: AAV1 VP3 (VP3M, VP3 203-736) of the AAV1-VP3-only capsid (natural protein, adeno-associated virus serotype 1 (AAV1), UniProt Q9WBP8 204-736, looked up)
chain: ASGGGAPMADNNEGADGVGNASGNWHCDSTWLGDRVITTSTRTWALPTYNNHLYKQISSASTGASNDNHYFGYSTPWGYFDFNRFHCHFSPRDWQRLINNNWGFRPKRLNFKLFNIQVKEVTTNDGVTTIANNLTSTVQVFSDSEYQLPYVLGSAHQGCLPPFPADVFMIPQYGYLTLNNGSQAVGRSSFYCLEYFPSQMLRTGNNFTFSYTFEEVPFHSSYAHSQSLDRLMNPLIDQYLYYLNRTQNQSGSAQNKDLLFSRGSPAGMSVQPKNWLPGPCYRQQRVSKTKTDNNNSNFTWTGASKYNLNGRESIINPGTAMASHKDDEDKFFPMSGVMIFGKESAGASNTALDNVMITDEEEIKATNPVATERFGTVAVNFQSSSTDPATGDVHAMGALPGMVWQDRDVYLQGPIWAKIPHTDGHFHPSPLMGGFGLKNPPPQILIKNTPVPANPPAEFSATKFASFITQYSTGQVSVEIEWELQKENSKRWNPEVQYTSNYAKSANVDFTVDNNGLYTEPRPIGTRYLTRPL
modifications: N-terminal methionine M203 removed; A204 acetylated at the N terminus
B2: AAV1-M211V-VP3 (VP3 of the AAV1-M211V-VP3-only capsid) (natural protein, adeno-associated virus serotype 1 (AAV1), UniProt Q9WBP8 204-736, looked up)
chain: B1 chain with M8V
modifications: N-terminal acetylation (NTA)

Target: the molecule itself
Experiment: native MS

Protein	stoichiometry N	binding result
B1	60	–
B2	–	binds
